This is an account of results in patent US20250059278A1 (SICHUAN HUIYU PHARMACEUTICAL, published 2025).

Positions count from the first letter of the chain named.

B1: CD3 monoclonal antibody M27 (antibody, human IgG1, lambda, V domains shown)
VH: EVQLVESGGGLVQPGGSLRLSCAASGFTFNTYAMNWVRQAPGKGLEWVARIRSKYNNYATYYADSVKGRFTISRDDSKSILYLQMNSLKTEDTAMYYCVRHANFGNSYVSWFASWGQGTLVTVSS
VL: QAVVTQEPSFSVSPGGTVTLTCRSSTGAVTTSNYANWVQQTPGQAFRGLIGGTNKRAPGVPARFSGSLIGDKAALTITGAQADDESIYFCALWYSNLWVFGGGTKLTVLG
notes: IgG: VH27 + IgG1 mutant CH, VL-1 + CL
B2: CD3 monoclonal antibody M44 (antibody, human IgG1, lambda, V domains shown)
VH: B1 VH with G68D, I80S, S87N, A102G, G105Q, V109I, S114Y
VL: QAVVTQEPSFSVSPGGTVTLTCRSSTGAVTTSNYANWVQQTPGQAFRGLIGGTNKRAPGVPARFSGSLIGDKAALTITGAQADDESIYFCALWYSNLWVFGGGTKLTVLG
notes: IgG: VH44 + IgG1 mutant CH, VL-1 + CL
B3: CD3 monoclonal antibody M30 (antibody, human IgG1, lambda, V domains shown)
VH: B1 VH with G68D, A102S, S107G, S114Y
VL: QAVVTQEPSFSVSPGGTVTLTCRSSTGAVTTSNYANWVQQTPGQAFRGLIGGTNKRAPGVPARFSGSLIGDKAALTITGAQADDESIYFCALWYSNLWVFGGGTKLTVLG
notes: IgG: VH30 + IgG1 mutant CH, VL-1 + CL
B4: CD3 monoclonal antibody M36 (antibody, human IgG1, lambda, V domains shown)
VH: B1 VH with G68D, I80S, A102S, G105P, S114Y
VL: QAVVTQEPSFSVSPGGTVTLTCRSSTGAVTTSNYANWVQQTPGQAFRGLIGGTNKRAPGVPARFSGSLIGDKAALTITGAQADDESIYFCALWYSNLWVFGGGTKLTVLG
notes: IgG: VH36 + IgG1 mutant CH, VL-1 + CL
B5: CD3 monoclonal antibody M46 (antibody, human IgG1, lambda, V domains shown)
VH: B1 VH with G68D
VL: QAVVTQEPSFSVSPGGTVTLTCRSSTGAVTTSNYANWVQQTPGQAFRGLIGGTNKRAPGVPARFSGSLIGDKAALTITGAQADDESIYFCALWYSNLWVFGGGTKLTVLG
notes: IgG: VH46 + IgG1 mutant CH, VL-1 + CL
B6: CD3 monoclonal antibody M43 (antibody, human IgG1, lambda, V domains shown)
VH: B1 VH with G68D, H101P, A102G, G105P, S114L
VL: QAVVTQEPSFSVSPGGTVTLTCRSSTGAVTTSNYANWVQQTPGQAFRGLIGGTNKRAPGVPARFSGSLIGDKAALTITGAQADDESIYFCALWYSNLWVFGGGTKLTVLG
notes: IgG: VH43 + IgG1 mutant CH, VL-1 + CL
B7: CD3 monoclonal antibody M35 (antibody, human IgG1, lambda, V domains shown)
VH: B1 VH with G68D, I80S, S87N, M95V, A102S, F112W, S114Y
VL: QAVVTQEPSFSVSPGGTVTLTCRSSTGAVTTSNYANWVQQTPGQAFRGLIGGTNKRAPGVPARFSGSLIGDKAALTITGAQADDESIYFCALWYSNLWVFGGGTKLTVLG
notes: IgG: VH35 + IgG1 mutant CH, VL-1 + CL
B8: CD3 monoclonal antibody M31 (antibody, human IgG1, lambda, V domains shown)
VH: B1 VH with S87N, M95V, A102S, A113E, S114Y
VL: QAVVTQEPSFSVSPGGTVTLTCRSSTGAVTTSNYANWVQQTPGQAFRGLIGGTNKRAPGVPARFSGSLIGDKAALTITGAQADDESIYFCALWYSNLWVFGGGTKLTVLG
notes: IgG: VH31 + IgG1 mutant CH, VL-1 + CL
B9: CD3 monoclonal antibody M34 (antibody, human IgG1, lambda, V domains shown)
VH: B1 VH with I80S, S87N, M95V, A102G, G105K, N106Q, S114Y
VL: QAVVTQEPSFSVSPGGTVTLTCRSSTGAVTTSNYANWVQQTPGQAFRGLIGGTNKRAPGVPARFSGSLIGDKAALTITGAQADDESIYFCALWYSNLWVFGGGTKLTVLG
notes: IgG: VH34 + IgG1 mutant CH, VL-1 + CL
B10: CD3 monoclonal antibody M38 (antibody, human IgG1, lambda, V domains shown)
VH: B1 VH with G68D, I80S, S87N, M95V, A102G, G105L, A113Q, S114Y
VL: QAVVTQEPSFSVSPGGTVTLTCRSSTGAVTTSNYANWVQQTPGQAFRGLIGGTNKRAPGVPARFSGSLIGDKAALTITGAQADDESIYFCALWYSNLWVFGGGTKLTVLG
notes: IgG: VH38 + IgG1 mutant CH, VL-1 + CL
B11: CD3 monoclonal antibody M33 (antibody, human IgG1, lambda, V domains shown)
VH: B1 VH with I80S, M95V, A102G, S107N
VL: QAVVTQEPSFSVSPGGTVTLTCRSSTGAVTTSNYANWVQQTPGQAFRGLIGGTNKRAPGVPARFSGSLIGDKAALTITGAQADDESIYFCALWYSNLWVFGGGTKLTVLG
notes: IgG: VH33 + IgG1 mutant CH, VL-1 + CL
B12: CD3 monoclonal antibody M29 (antibody, human IgG1, lambda, V domains shown)
VH: B1 VH with A102G, G105P, N106M, S114Y
VL: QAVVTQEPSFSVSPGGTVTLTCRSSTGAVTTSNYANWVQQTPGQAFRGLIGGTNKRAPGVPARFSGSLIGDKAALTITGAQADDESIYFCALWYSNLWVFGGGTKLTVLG
notes: IgG: VH29 + IgG1 mutant CH, VL-1 + CL
B13: CD3 monoclonal antibody M42 (antibody, human IgG1, lambda, V domains shown)
VH: B1 VH with I80S, S87N, A102G, G105Q, A113Q, S114Y
VL: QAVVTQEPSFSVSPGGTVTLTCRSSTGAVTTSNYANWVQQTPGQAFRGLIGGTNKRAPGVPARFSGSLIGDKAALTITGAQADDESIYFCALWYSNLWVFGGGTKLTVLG
notes: IgG: VH42 + IgG1 mutant CH, VL-1 + CL
B14: CD3 monoclonal antibody M45 (antibody, human IgG1, lambda, V domains shown)
VH: B1 VH with G68D, I80S, S87N, A102S, A113Q, S114Y
VL: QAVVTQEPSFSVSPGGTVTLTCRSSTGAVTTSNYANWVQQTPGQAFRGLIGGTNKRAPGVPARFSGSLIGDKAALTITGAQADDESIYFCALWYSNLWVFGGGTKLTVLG
notes: IgG: VH45 + IgG1 mutant CH, VL-1 + CL
B15: CD3 monoclonal antibody M39 (antibody, human IgG1, lambda, V domains shown)
VH: B1 VH with G68D, I80S, S87N, A102Q, A113Q, S114Y
VL: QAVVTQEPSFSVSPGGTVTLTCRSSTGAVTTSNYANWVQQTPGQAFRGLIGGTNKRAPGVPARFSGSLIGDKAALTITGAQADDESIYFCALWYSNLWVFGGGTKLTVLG
notes: IgG: VH39 + IgG1 mutant CH, VL-1 + CL
B16: CD3 monoclonal antibody M37 (antibody, human IgG1, lambda, V domains shown)
VH: B1 VH with G68D, S87N, G105S, S114Y
VL: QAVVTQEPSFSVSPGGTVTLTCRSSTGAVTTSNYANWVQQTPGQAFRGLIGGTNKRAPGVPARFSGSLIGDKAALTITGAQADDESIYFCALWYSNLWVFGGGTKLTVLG
notes: IgG: VH37 + IgG1 mutant CH, VL-1 + CL
B17: CD3 monoclonal antibody M40 (antibody, human IgG1, lambda, V domains shown)
VH: B1 VH with G68D, I80S, S87N, H101A, A102G, A113Q, S114Y
VL: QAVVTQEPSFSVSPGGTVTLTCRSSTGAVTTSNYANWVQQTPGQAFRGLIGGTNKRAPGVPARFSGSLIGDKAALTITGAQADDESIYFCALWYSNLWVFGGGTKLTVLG
notes: IgG: VH40 + IgG1 mutant CH, VL-1 + CL
B18: CD3 monoclonal antibody M32 (antibody, human IgG1, lambda, V domains shown)
VH: B1 VH with I80S, M95V, A102S, Y108R, S114Y
VL: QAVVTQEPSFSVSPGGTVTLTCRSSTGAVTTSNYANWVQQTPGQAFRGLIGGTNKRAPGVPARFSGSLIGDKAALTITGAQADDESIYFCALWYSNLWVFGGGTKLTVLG
notes: IgG: VH32 + IgG1 mutant CH, VL-1 + CL
B19: CD3 monoclonal antibody M41 (antibody, human IgG1, lambda, V domains shown)
VH: B1 VH with I80S, S87N, A102S, G105Q, S114Y
VL: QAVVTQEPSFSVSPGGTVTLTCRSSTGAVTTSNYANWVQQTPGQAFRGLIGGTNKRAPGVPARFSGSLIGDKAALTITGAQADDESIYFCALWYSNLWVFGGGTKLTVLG
notes: IgG: VH41 + IgG1 mutant CH, VL-1 + CL
B20: Positive control bispecific antibody OKT3-3C6 (bispecific antibody, human IgG1, lambda)
heavy: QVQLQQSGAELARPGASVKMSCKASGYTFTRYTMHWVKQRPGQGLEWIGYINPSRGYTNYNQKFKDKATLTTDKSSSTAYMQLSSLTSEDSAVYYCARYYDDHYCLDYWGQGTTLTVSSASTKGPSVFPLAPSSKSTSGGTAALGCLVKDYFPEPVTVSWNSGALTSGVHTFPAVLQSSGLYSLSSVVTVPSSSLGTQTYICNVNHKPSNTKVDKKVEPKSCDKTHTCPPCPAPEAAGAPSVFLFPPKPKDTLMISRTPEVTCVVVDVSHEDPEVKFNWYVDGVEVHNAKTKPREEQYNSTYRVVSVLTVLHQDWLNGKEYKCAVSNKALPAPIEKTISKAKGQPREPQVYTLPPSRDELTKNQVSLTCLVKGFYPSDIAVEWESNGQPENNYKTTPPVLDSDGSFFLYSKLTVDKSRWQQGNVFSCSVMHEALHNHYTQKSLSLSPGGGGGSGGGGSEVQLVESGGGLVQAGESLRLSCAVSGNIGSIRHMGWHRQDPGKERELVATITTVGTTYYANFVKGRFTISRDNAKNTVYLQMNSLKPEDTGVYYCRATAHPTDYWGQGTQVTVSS
light: QIVLTQSPAIMSASPGEKVTMTCSASSSVSYMNWYQQKSGTSPKRWIYDTSKLASGVPAHFRGSGSGTSYSLTISGMEAEDAATYYCQQWSSNPFTFGSGTKLEIGQPKAAPSVTLFPPSSEELQANKATLVCLISDFYPGAVTVAWKADSSPVKAGVETTTPSKQSNNKYAASSYLSLTPEQWKSHRSYSCQVTHEGSTVEKTVAPTECS

The first assay concerns the target T1, Human CD3 on Jurkat cells (human, UniProt P07766 23-207; P09693 23-182; P04234 22-171).
T1 construct: whole, on cells; also called Human CD3-expressing Jurkat cells; Jurkat (naturally expressing human CD3)
Nature of the assay: flow cytometry on Jurkat cells. In general terms: A flow cytometer gives signals particle by particle.
One may read the EC50 as the midpoint of the concentration-response curve. The molecule B1 came in with an EC50 of 0.403 nM.
On the same count and under the same terms, as for B2, the figure is 1.61 nM.
Same read-out and setting: as for B3, the figure is 0.302 nM; as for B4, 0.198 nM.
In the case of B5, the EC50 was 0.338 nM.
On the same count and under the same terms, as for B6, the figure is 10.2 nM; as for B7, 0.792 nM; as for B8, 1.56 nM.
Still for that read-out and setting: as for B9, the figure is 2.58 nM.
On the same count and under the same terms, as for B10, the figure is 0.176 nM; as for B11, 4.92 nM; as for B12, 0.412 nM.
Molecule B13 showed an EC50 of 0.431 nM.
Turning to B14, the EC50 is 0.415 nM.
Turning to B15, the EC50 was 0.759 nM.
Same read-out and setting: as for B16, the figure is 0.211 nM.
B17: the EC50 worked out at 3.41 nM.
On the same count and under the same terms, as for B18, the figure is 0.188 nM; as for B19, 0.751 nM.

A further assay deals with T1, Human CD3 on Jurkat cells. Nature of the assay: flow cytometry on Jurkat cells. This is another data set of the same source.
B20 had an EC50 of 0.0736 nM.

Another assay concerns the target T2, Monkey CD3 on cynomolgus HSC-F cells (cynomolgus monkey, UniProt Q95LI5 22-198; Q95LI7 23-181; Q95LI8 22-171).
T2 construct: whole, on cells; also called Monkey CD3-expressing cynomolgus HSC-F cells; cynomolgus monkey CD3-expressing HSC-F cells
Nature of the assay: flow cytometry on HSC-F cells.
In the case of B1, the response was half-maximal at 0.165 nM (EC50).
On the same count and under the same terms, as for B2, the figure is 0.141 nM.
Molecule B3 had a concentration giving a half-maximal response (EC50) of 0.347 nM.
On the same count and under the same terms, as for B4, the figure is 0.109 nM.
B5: the EC50 was 0.148 nM.
The same measure, in the same setting: as for B6, the figure is 8.24 nM.
On the same count and under the same terms, as for B7, the figure is 0.207 nM; as for B8, 0.154 nM.
In turn, B9 returned a 50% effective concentration (EC50) of 0.266 nM.
B10 showed an EC50 of 0.161 nM.
The same measure, in the same setting: as for B11, the figure is 1.55 nM; as for B12, 0.272 nM; as for B13, 0.143 nM.
Still for that read-out and setting: as for B14, the figure is 0.156 nM; as for B15, 0.498 nM.
Still for that read-out and setting: as for B16, the figure is 0.398 nM; as for B17, 0.407 nM.
On to B18, for which the EC50 was 0.0667 nM.
The same measure, in the same setting: as for B19, the figure is 0.13 nM.

For another assay, the target named is T2, Monkey CD3 on cynomolgus HSC-F cells. Nature of the assay: flow cytometry on HSC-F cells. This is another data set of the same source.
Take B20: the binding result is reported as “no binding (tested: 2 µg/ml starting concentration)”.

For another assay, the target named is T3, Human CD3εγ recombinant antigen (acrobiosystems, Cat. No. CDG-H52W5) (human, UniProt P07766 23-126; P09693 23-116).
T3 construct: Bought recombinant protein
Briefly: SPR chip (Carterra), antibody captured, antigen in flow.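 Note: antibodies captured through anti-human IgG Fc at roughly 1000 RU, kinetic constants fitted with a 1:1 binding model in Carterra analysis software.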
Procedure: Antibodies at three concentrations of 4, 2, and 1 μg/mL were immobilized on the HC200M chip containing anti-human IgG Fc secondary antibody (Xantec, Cat. No.: HC200M), and the antibody binding amount was controlled to approximately 1000RU. […] The kinetic constants were obtained by fitting using the 1:1 binding model of Kinetics software from Carterra.
Usually Kd stands for the free concentration of one partner at which half of the binding sites on the other are occupied at equilibrium, for simple one-to-one binding. As usually defined, the koff is the rate constant with which the complex falls apart. Broadly, the kon is the rate constant with which the complex forms. As for B1, the Kd amounted to 2.44 nM, the koff was 0.0028 s⁻¹ and the kon worked out at 1.15e+06 M⁻¹ s⁻¹.
For B2 the same measures were 3.33 nM, 0.00334 s⁻¹ and 1e+06 M⁻¹ s⁻¹.
In the same order, the values of B3 are 2.93 nM, 0.00234 s⁻¹ and 798000 M⁻¹ s⁻¹.
In the same order, the values of B4 are 1.69 nM, 0.0109 s⁻¹ and 6.46e+06 M⁻¹ s⁻¹.
With B5, the Kd turned out to be 2.05 nM, the koff was found to be 0.00205 s⁻¹ and the kon was found to be 999000 M⁻¹ s⁻¹.
Regarding B6, the Kd came to 13.3 nM, the koff was 0.0016 s⁻¹ and the kon was 120000 M⁻¹ s⁻¹.
For B7 the same measures were 0.842 nM, 0.00283 s⁻¹ and 3.36e+06 M⁻¹ s⁻¹.
As to B8, the Kd stood at 0.43 nM, the koff came out at 0.00126 s⁻¹ and the kon is 2.92e+06 M⁻¹ s⁻¹.
As for B9, the Kd came out at 7.22 nM, the koff amounted to 0.0034 s⁻¹ and the kon turned out to be 471000 M⁻¹ s⁻¹.
For B10 the same measures were 2.33 nM, 0.00268 s⁻¹ and 1.15e+06 M⁻¹ s⁻¹.
For B11 the same measures were 19.3 nM, 0.0054 s⁻¹ and 280000 M⁻¹ s⁻¹.
For the molecule B12, the Kd came to 5.88 nM, the koff worked out at 0.00776 s⁻¹ and the association rate constant (kon) is 1.32e+06 M⁻¹ s⁻¹.
For B13 the same measures were 1.15 nM, 0.00137 s⁻¹ and 1.19e+06 M⁻¹ s⁻¹.
On to B14, for which the Kd came out at 1.87 nM, the koff was 0.00344 s⁻¹ and the on-rate (kon) was found to be 1.85e+06 M⁻¹ s⁻¹.
For B15 the same measures were 29.7 nM, 0.0305 s⁻¹ and 1.02e+06 M⁻¹ s⁻¹.
In the same order, the values of B16 are 5.31 nM, 0.0043 s⁻¹ and 810000 M⁻¹ s⁻¹.
In the same order, the values of B17 are 1.28 nM, 0.00055 s⁻¹ and 431000 M⁻¹ s⁻¹.
With B18, the Kd was 4.37 nM, the koff amounted to 0.0133 s⁻¹ and the kon stood at 3.05e+06 M⁻¹ s⁻¹.
For B19 the same measures were 1.52 nM, 0.00513 s⁻¹ and 3.38e+06 M⁻¹ s⁻¹.
